Experimental findings from US20130040886A1 (BOARD OF TRUSTEES OF THE UNIVERSITY OF ILLINOIS, published 2013) are described below.

Assay [1] addresses T1, α11bβ3 integrin (platelet integrin αIIbβ3) from solubilized human platelets (human, UniProt P08514 32-1039; P05106 27-788).
T1 construct: mature; Native protein from solubilized human platelets, detected by immunoblot with Abcam antibodies
Nature of the assay: peptide affinity column with solubilized human platelets, immunoblot of eluate. An excerpt: (§1) On this basis, subsequent experiments examined whether G₁₃SR2ₚₑₚ peptide (SEQ ID NO:5) does indeed directly interact with α11bβ₃ and/or one of its associated proteins in human platelets. In this respect, platelet α11bβ₃ integrin is known to exist in a complex with two cytoplasmic proteins, i.e., talin and kindlin-3 (Tadokoro, et al. (2003) Science 302:103-6; Moser, et al. (2008) Nature Med. 14:325-30). To determine whether G₁₃SR2ₚₑₚ, (SEQ ID NO:5) interacts with any of these proteins (or with the entire α11bβ₃, talin, kindlin-3 complex), peptide affinity columns using G₁₃SR2ₚₑₚ (SEQ ID NO:5) were employed. The affinity purified protein(s) from solubilized human platelets that specifically bound to the G₁₃SR2ₚₑₚ peptide were eluted, and analyzed by western blot for α11bβ₃ integrin, talin and kindlin-3. In similar experiments, the eluates from a peptide column using the G₁₃SR2-Random Peptide (SEQ ID NO:9) were also analyzed. […] This was supported by similar experiments using talin antibodies and the kindlin 3 antibody (Abcam).
(In general: Immunoblotting shows a protein as a band on a membrane.)

Assay [2] deals with T2, kindlin 3 (72 kD) from solubilized human platelets (human, UniProt Q86UX7 1-667).
T2 construct: mature; Native cytoplasmic protein from solubilized human platelets
T2 sequence (Q86UX7 whole entry): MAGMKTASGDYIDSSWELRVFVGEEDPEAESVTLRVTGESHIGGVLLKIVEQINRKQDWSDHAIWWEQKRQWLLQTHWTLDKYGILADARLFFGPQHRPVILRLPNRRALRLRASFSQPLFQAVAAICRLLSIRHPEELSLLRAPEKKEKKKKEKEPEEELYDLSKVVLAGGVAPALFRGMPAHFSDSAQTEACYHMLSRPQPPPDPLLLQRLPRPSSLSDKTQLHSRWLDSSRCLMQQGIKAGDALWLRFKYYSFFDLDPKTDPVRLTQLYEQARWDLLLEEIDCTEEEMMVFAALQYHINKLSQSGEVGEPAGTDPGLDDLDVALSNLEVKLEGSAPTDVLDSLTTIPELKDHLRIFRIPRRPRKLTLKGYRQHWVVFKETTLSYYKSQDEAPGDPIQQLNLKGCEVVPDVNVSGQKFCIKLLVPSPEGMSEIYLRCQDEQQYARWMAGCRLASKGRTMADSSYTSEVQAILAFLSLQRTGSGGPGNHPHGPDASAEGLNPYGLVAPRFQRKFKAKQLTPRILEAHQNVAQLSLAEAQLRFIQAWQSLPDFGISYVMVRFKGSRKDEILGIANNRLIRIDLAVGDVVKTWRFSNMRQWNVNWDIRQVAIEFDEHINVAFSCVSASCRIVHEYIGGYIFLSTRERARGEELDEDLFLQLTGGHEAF
Described as above.
Text: as §1

For assay [3], the target named is T3, α11bβ3-talin-kindlin 3 complex from solubilized human platelets (human, UniProt P08514 32-1039; P05106 27-788; Q9Y490 1-2541; Q86UX7 1-667).
T3 construct: mature
The description is as above.
Text: as §1

For assay [4], the target named is T1, α11bβ3 integrin (platelet integrin …). Briefly: peptide affinity column with solubilized human platelets, western blot of eluates.
Text: as §1

The target in assay [5] is T2, kindlin 3 (72 kD) from solubilized …. The assay is described as above.
Text: as §1

B1: G13 Switch Region 2 peptide (G13SR2pep), Val-Gly-Gly-Gln-Arg-Ser-Glu-Arg-Lys-Arg-Trp-Phe-Glu-Cys-Phe-Asp-Ser (peptide)
peptide: VGGQRSERKRWFECFDS
notes: how it was coupled is not described; also called G13SR2pep peptide; Gα13 SR2 peptide
As for B1, the binding result in assay [1], in assay [2] and in assay [3] was “binds” throughout.

B2: G13SR2-Random Peptide, Gly-Phe-Asp-Glu-Trp-Glu-Val-Ser-Phe-Lys-Gly-Cys-Gln-Arg-Arg-Ser-Arg (peptide)
peptide: GFDEWEVSFKGCQRRSR
notes: Control peptide immobilised on a peptide column; also called Random Peptide control
In the case of B2, the binding result in assay [4] and in assay [5] was “no binding” throughout.
